# Earlier results in patent publication US20250049892A1, “SEMAGLUTIDE SOLUBLE MICRONEEDLE COMPOSITION AND PREPARATION METHOD THEREFOR” (GUANGZHOU NOVAKEN PHARM CO., LTD., priority 2022, published 2025).
# Settings: oral administration of semaglutide (with SNAC)
substance,measurement,value
Semaglutide,bioavailability,0.9-1.2%
